What follows are substances tested against T1, rCRISPA (rCRISP1) (Rattus norvegicus, UniProt P12020) (assay: Protease activity screen: cleavage of substrate peptides by native rCRISPA (+DANA protocol), measured by fluorescence). Conditions: 5 μM substrate peptide, 1 μg enzyme, 100 mM NaCl, 25 mM Tris-Cl, pH 7.5; fluorescence at ten minute intervals for 130 minutes; FIG. 13.
T1 construct: Native rCRISPA (rCRISP1) protein, purified with DANA present; from tissue; host or cells: rat epididymis
T1 sequence (P12020 20-246): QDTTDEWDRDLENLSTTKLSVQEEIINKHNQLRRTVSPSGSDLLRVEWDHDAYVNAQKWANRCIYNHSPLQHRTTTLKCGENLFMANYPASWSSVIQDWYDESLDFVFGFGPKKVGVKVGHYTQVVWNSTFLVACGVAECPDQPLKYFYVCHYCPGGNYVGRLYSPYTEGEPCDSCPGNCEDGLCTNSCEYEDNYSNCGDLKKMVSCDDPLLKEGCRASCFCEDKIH
Format: biochemical
Protocol: FIG. 13 is a graph showing rCRISPA (rCRISP1) protease activity (assay conditions: 5 μM substrate peptide, 1 μg enzyme, 100 mM NaCl, 25 mM Tris-Cl, pH 7.5). A. Cleaved peptides A04 (RGARARLG), N08 (RKRRAPLA), N12 (AKRAASQI), N17 (RKRRAVLT), B22 (APQRFGKK), B17 (RQRYGKRS), B23 (RVKRYRQS), H03 (RNKRAVQG). B. Cleaved peptides B20 (PQRFGRNT), C16 (RVLGLKAH), J21 (LRNRAQSG), H07 (RVKRQVRS), H11 (RRLLRAIP), N05 (RARRELAP), H01 (RKKRSTKK), O22 (GGVRGPRV), O16 (AATRRQAV), O23 (KNVAMQKG), G24 (RRKRSTRE), A09 (RMRRYADA), M02 (EKQRIIGG), H17 (NGLRADPM). C. Uncleaved peptides L16 (KTPRWGG), N10 (FYRADQPR), B11 (AAGVAPLS), J03 (PQLHSTGG), C01 (GPQGLLGA), K11 (VIPRSGGS), M07 (GLQRALEI), A01 (WQGGRRKF), H02 (RAKRSVHF), A10 (SAARPAPP), M16 (RSRREADL), A05 (SYRKVLGQ), M18 (VHRDMAAR), C23 (RDAQAHPG), M09 (GSQHIRAE), E19 (RLGREGVQ), D06 (ALAEAMKK).
Native rCRISPA (rCRISP1) protein, purified with DANA present (see Example 4), was screened for the ability to cleave 360 unique peptides using the commercially available peptide substrate set (catalog # PrSS-360-75, JPT Peptide Technologies, Springfield, Va.). […] The substrate peptides cleaved by rCRISPA in this assay are represented by blue and green traces noted in FIG. 13. Peptides that were not cleaved by rCRISPA are also noted in FIG. 13.
For “RSRREADL [M16, substrate peptide of the commercial peptide substrate set PrSS-360-75, JPT Peptide Technologies]”, the “cleavage of substrate peptide by rCRISPA (rCRISP1) protease activity” value (“cleavage of substrate peptide by rCRISPA” for short) was “Uncleaved”. For “RAKRSVHF [H02, substrate peptide of the commercial peptide substrate set PrSS-360-75, JPT Peptide Technologies]”, the “cleavage of substrate peptide by rCRISPA” value was “Uncleaved”. “RKKRSTKK [H01, substrate peptide of the commercial peptide substrate set PrSS-360-75, JPT Peptide Technologies]” was tested, and the “cleavage of substrate peptide by rCRISPA” value was “Cleaved”. For “EKQRIIGG [M02, substrate peptide of the commercial peptide substrate set PrSS-360-75, JPT Peptide Technologies]”, the “cleavage of substrate peptide by rCRISPA” value was “Cleaved”. For “PQLHSTGG [J03, substrate peptide of the commercial peptide substrate set PrSS-360-75, JPT Peptide Technologies]”, the “cleavage of substrate peptide by rCRISPA” value was “Uncleaved”. “AATRRQAV [O16, substrate peptide of the commercial peptide substrate set PrSS-360-75, JPT Peptide Technologies]” was tested, and the “cleavage of substrate peptide by rCRISPA” value was “Cleaved”. In the case of “WQGGRRKF [A01, substrate peptide of the commercial peptide substrate set PrSS-360-75, JPT Peptide Technologies]”, the “cleavage of substrate peptide by rCRISPA” value is reported as “Uncleaved”. “RMRRYADA [A09, substrate peptide of the commercial peptide substrate set PrSS-360-75, JPT Peptide Technologies]” was tested, and the “cleavage of substrate peptide by rCRISPA” value was “Cleaved”. In the case of “ALAEAMKK [D06, substrate peptide of the commercial peptide substrate set PrSS-360-75, JPT Peptide Technologies]”, the “cleavage of substrate peptide by rCRISPA” value is reported as “Uncleaved”. For “GLQRALEI [M07, substrate peptide of the commercial peptide substrate set PrSS-360-75, JPT Peptide Technologies]”, the “cleavage of substrate peptide by rCRISPA” value was “Uncleaved”. In the case of “KTPRWGG [L16, substrate peptide of the commercial peptide substrate set PrSS-360-75, JPT Peptide Technologies]”, the “cleavage of substrate peptide by rCRISPA” value is reported as “Uncleaved”. In the case of “FYRADQPR [N10, substrate peptide of the commercial peptide substrate set PrSS-360-75, JPT Peptide Technologies]”, the “cleavage of substrate peptide by rCRISPA” value is reported as “Uncleaved”. “RKRRAVLT [N17, substrate peptide of the commercial peptide substrate set PrSS-360-75, JPT Peptide Technologies]” was tested, and the “cleavage of substrate peptide by rCRISPA” value was “Cleaved”. With “VIPRSGGS [K11, substrate peptide of the commercial peptide substrate set PrSS-360-75, JPT Peptide Technologies]” the “cleavage of substrate peptide by rCRISPA” value was “Uncleaved”. In the case of “RLGREGVQ [E19, substrate peptide of the commercial peptide substrate set PrSS-360-75, JPT Peptide Technologies]”, the “cleavage of substrate peptide by rCRISPA” value is reported as “Uncleaved”. In the case of “AAGVAPLS [B11, substrate peptide of the commercial peptide substrate set PrSS-360-75, JPT Peptide Technologies]”, the “cleavage of substrate peptide by rCRISPA” value is reported as “Uncleaved”. In the case of “RDAQAHPG [C23, substrate peptide of the commercial peptide substrate set PrSS-360-75, JPT Peptide Technologies]”, the “cleavage of substrate peptide by rCRISPA” value is reported as “Uncleaved”. In the case of “PQRFGRNT [B20, substrate peptide of the commercial peptide substrate set PrSS-360-75, JPT Peptide Technologies]”, the “cleavage of substrate peptide by rCRISPA” value is reported as “Cleaved”. “VHRDMAAR [M18, substrate peptide of the commercial peptide substrate set PrSS-360-75, JPT Peptide Technologies]” was tested, and the “cleavage of substrate peptide by rCRISPA” value was “Uncleaved”. With “AKRAASQI [N12, substrate peptide of the commercial peptide substrate set PrSS-360-75, JPT Peptide Technologies]” the “cleavage of substrate peptide by rCRISPA” value was “Cleaved”. “RQRYGKRS [B17, substrate peptide of the commercial peptide substrate set PrSS-360-75, JPT Peptide Technologies]” was tested, and the “cleavage of substrate peptide by rCRISPA” value was “Cleaved”. For “RVKRQVRS [H07, substrate peptide of the commercial peptide substrate set PrSS-360-75, JPT Peptide Technologies]”, the “cleavage of substrate peptide by rCRISPA” value was “Cleaved”. In the case of “RRLLRAIP [H11, substrate peptide of the commercial peptide substrate set PrSS-360-75, JPT Peptide Technologies]”, the “cleavage of substrate peptide by rCRISPA” value is reported as “Cleaved”. “RGARARLG [A04, substrate peptide of the commercial peptide substrate set PrSS-360-75, JPT Peptide Technologies]” was tested, and the “cleavage of substrate peptide by rCRISPA” value was “Cleaved”. For “SYRKVLGQ [A05, substrate peptide of the commercial peptide substrate set PrSS-360-75, JPT Peptide Technologies]”, the “cleavage of substrate peptide by rCRISPA” value was “Uncleaved”. With “KNVAMQKG [O23, substrate peptide of the commercial peptide substrate set PrSS-360-75, JPT Peptide Technologies]” the “cleavage of substrate peptide by rCRISPA” value was “Cleaved”. For “RVKRYRQS [B23, substrate peptide of the commercial peptide substrate set PrSS-360-75, JPT Peptide Technologies]”, the “cleavage of substrate peptide by rCRISPA” value was “Cleaved”. “NGLRADPM [H17, substrate peptide of the commercial peptide substrate set PrSS-360-75, JPT Peptide Technologies]” was tested, and the “cleavage of substrate peptide by rCRISPA” value was “Cleaved”. With “GSQHIRAE [M09, substrate peptide of the commercial peptide substrate set PrSS-360-75, JPT Peptide Technologies]” the “cleavage of substrate peptide by rCRISPA” value was “Uncleaved”. “RNKRAVQG [H03, substrate peptide of the commercial peptide substrate set PrSS-360-75, JPT Peptide Technologies]” was tested, and the “cleavage of substrate peptide by rCRISPA” value was “Cleaved”. For “RVLGLKAH [C16, substrate peptide of the commercial peptide substrate set PrSS-360-75, JPT Peptide Technologies]”, the “cleavage of substrate peptide by rCRISPA” value was “Cleaved”. “LRNRAQSG [J21, substrate peptide of the commercial peptide substrate set PrSS-360-75, JPT Peptide Technologies]” was tested, and the “cleavage of substrate peptide by rCRISPA” value was “Cleaved”. In the case of “RKRRAPLA [N08, substrate peptide of the commercial peptide substrate set PrSS-360-75, JPT Peptide Technologies]”, the “cleavage of substrate peptide by rCRISPA” value is reported as “Cleaved”. “GGVRGPRV [O22, substrate peptide of the commercial peptide substrate set PrSS-360-75, JPT Peptide Technologies]” was tested, and the “cleavage of substrate peptide by rCRISPA” value was “Cleaved”. “GPQGLLGA [C01, substrate peptide of the commercial peptide substrate set PrSS-360-75, JPT Peptide Technologies]” was tested, and the “cleavage of substrate peptide by rCRISPA” value was “Uncleaved”. In the case of “SAARPAPP [A10, substrate peptide of the commercial peptide substrate set PrSS-360-75, JPT Peptide Technologies]”, the “cleavage of substrate peptide by rCRISPA” value is reported as “Uncleaved”. For “APQRFGKK [B22, substrate peptide of the commercial peptide substrate set PrSS-360-75, JPT Peptide Technologies]”, the “cleavage of substrate peptide by rCRISPA” value was “Cleaved”.

— patent US20060275803A1, “Rat and mouse members of the CRISP family of genes” (Wyeth, priority 2005, published 2006)
